Paper doi:10.1101/2022.02.24.481826v2

Key:
[1] = tested on: O=P(O)(O)OP(=O)(O)OP(=O)(O)OC[C@H]1O[C@@H](n2cnc3c(O)ncnc32)[C@H](O)[C@@H]1O; assay: EnzChek pyrophosphate release assay, Michaelis-Menten fit; type: biochemical, Arabidopsis thaliana; details: ITP to IMP
[2] = tested on: O=c1[nH]cnc2c1ncn2[C@H]1C[C@H](O)[C@@H](COP(=O)(O)OP(=O)(O)OP(=O)(O)O)O1; assay: as above; type: biochemical, Arabidopsis thaliana; details: dITP to dIMP

Question: Which Km [1] does the source give for ITPA (Arabidopsis thaliana) here?
Answer: 7.1 ± 1.2 µM

Question: What about the kcat [1] of the same substance?
Answer: 1.9 ± 0.25 s⁻¹

Question: What about the Km [2] of the same substance?
Answer: 1.7 ± 0.3 µM

Question: What about the kcat [2] of the same substance?
Answer: 1.5 ± 0.17 s⁻¹
